B1: BBSome complex member BBS5 (Homo sapiens), Q8N3I7 (parent)
chain: MSVLDALWEDRDVRFDLSAQQMKTRPGEVLIDCLDSIEDTKGNNGDRGRLLVTNLRILWHSLALSRVNVSVGYNCILNITTRTANSKLRGQTEALYILTKCNSTRFEFIFTNLVPGSPRLFTSVMAVHRAYETSKMYRDFKLRSALIQNKQLRLLPQEHVYDKINGVWNLSSDQGNLGTFFITNVRIVWHANMNDSFNVSIPYLQIRSIKIRDSKFGLALVIESSQQSGGYVLGFKIDPVEKLQESVKEINSLHKVYSASPIFGVDYEMEEKPQPLEALTVEQIQDDVEIDSDGHTDAFVAYFADGNKQQDREPVFSEELGLAIEKLKDGFTLQGLWEVMS
partner: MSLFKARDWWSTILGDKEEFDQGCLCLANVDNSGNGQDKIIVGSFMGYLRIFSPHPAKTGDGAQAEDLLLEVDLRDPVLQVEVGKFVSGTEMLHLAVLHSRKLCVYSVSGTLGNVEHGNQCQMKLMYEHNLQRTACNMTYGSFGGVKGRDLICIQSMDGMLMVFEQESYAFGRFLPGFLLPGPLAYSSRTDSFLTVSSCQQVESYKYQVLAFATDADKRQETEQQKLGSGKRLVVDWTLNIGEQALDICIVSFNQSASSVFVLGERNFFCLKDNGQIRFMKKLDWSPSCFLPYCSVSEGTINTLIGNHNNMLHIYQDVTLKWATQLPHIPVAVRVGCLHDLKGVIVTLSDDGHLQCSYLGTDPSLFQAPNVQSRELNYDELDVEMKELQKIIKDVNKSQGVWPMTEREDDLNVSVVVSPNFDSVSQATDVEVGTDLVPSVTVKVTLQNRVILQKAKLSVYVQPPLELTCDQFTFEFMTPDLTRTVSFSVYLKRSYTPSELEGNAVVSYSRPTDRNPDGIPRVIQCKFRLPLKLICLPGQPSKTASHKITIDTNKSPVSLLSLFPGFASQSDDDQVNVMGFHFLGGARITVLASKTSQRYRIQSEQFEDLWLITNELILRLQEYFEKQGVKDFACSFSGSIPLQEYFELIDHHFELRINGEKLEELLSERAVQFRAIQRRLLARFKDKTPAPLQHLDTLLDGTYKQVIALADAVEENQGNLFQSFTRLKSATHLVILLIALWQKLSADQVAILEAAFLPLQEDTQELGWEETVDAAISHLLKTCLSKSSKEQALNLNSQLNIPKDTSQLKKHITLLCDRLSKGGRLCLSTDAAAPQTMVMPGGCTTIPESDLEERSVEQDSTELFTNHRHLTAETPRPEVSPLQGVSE

Variants of: B1
Settings: with pthb1_human BBS9, Q3SYG4

Row | Variant | effect of a mutation on the interaction
1 | MSVLDALWEDRDVRFDLSAQQMKTRPGEVLIDCLDSIEETKGNNGDRGRLLVTNLRILWHSLALSRVNVSVGYNCILNITTRTANSKLRGQTEALYILTKCNSTRFEFIFTNLVPGSPRLFTSVMAVHRAYETSKMYRDFKLRSALIQNKQLRLLPQEHVYDKINGVWNLSSDQGNLGTFFITNVRIVWHANMNDSFNVSIPYLQIRSIKIRDSKFGLALVIESSQQSGGYVLGFKIDPVEKLQESVKEINSLHKVYSASPIFGVDYEMEEKPQPLEALTVEQIQDDVEIDSDGHTDAFVAYFADGNKQQDREPVFSEELGLAIEKLKDGFTLQGLWEVMS [D39E] | with no effect
2 | MSVLDALWEDRDVRFDLSAQQMKTRPGEVLIDCLDSIEDTKGNNGDRGRLLVTNLAILWHSLALSRVNVSVGYNCILNITTRTANSKLRGQTEALYILTKCNSTRFEFIFTNLVPGSPRLFTSVMAVHRAYETSKMYRDFKLRSALIQNKQLRLLPQEHVYDKINGVWNLSSDQGNLGTFFITNVRIVWHANMNDSFNVSIPYLQIRSIKIRDSKFGLALVIESSQQSGGYVLGFKIDPVEKLQESVKEINSLHKVYSASPIFGVDYEMEEKPQPLEALTVEQIQDDVEIDSDGHTDAFVAYFADGNKQQDREPVFSEELGLAIEKLKDGFTLQGLWEVMS [R56A] | disrupting interaction strength
3 | MSVLDALWEDRDVRFDLSAQQMKTRPGEVLIDCLDSIEDTKGNNGDRGRLLVTNLRILWHSLALSRVNVSVGYNCILNITTRTANSKLRGQTEALYILTKCNSTRFEFIFTNLVPGSPRLFTSVMAVHRAYETSKMYRDFKLRSALIQNKQLRLLPQEHVYDKINGVWNLSSDQGNLGTFFITNVRIVWHANMNDSFNVSIPYLQIRSIKIRDSKFGLALVIESSQQSGGYVLGFKIDPVEKLQESVKEINSLHKVYSASPIFAVDYEMEEKPQPLEALTVEQIQDDVEIDSDGHTDAFVAYFADGNKQQDREPVFSEELGLAIEKLKDGFTLQGLWEVMS [G264A] | with no effect
4 | MSVKDALWEDRDVRFDLSAQQMKTRPGEVLIDCLDSIEDTKGNNGDRGRLLVTNLRILWHSLALSRVNVSVGYNCILNITTRTANSKLRGQTEALYILTKCNSTRFEFIFTNLVPGSPRLFTSVMAVHRAYETSKMYRDFKLRSALIQNKQLRLLPQEHVYDKINGVWNLSSDQGNLGTFFITNVRIVWHANMNDSFNVSIPYLQIRSIKIRDSKFGLALVIESSQQSGGYVLGFKIDPVEKLQESVKEINSLHKVYSASPIFGVDYEMEEKPQPLEALTVEQIQDDVEIDSDGHTDAFVAYFADGNKQQDREPVFSEELGLAIEKLKDGFTLQGLWEVMS [L4K] | with no effect
5 | MSVLDALWEDRDVRFDLSAQQMKTRPGEVLIDCLDSIEDTKGNNGDRGRLLVTNLRILWHSLALSRVNVSVGYNCILEITTRTANSKLRGQTEALYILTKCNSTRFEFIFTNLVPGSPRLFTSVMAVHRAYETSKMYRDFKLRSALIQNKQLRLLPQEHVYDKINGVWNLSSDQGNLGTFFITNVRIVWHANMNDSFNVSIPYLQIRSIKIRDSKFGLALVIESSQQSGGYVLGFKIDPVEKLQESVKEINSLHKVYSASPIFGVDYEMEEKPQPLEALTVEQIQDDVEIDSDGHTDAFVAYFADGNKQQDREPVFSEELGLAIEKLKDGFTLQGLWEVMS [N78E] | with no effect
6 | MSVLDALWEDRDVRFDLSAQQMKTRPGEVLIDCLDSIEDTKGNNGDRGRLLVTNLRILWHSLALSRVNVSVGYNCILNITTRTANSKLRGQTEALYILTKCNSTRFEFIFTNLVPGSPRLFTSVMAVHRAYETSKMYRDFKLRSALIQNKQLRLLPQEHVYDKINGVWNLSSDQGNLGTFFITNVRIVKHANMNDSFNVSIPYLQIRSIKIRDSKFGLALVIESSQQSGGYVLGFKIDPVEKLQESVKEINSLHKVYSASPIFGVDYEMEEKPQPLEALTVEQIQDDVEIDSDGHTDAFVAYFADGNKQQDREPVFSEELGLAIEKLKDGFTLQGLWEVMS [W189K] | with no effect
7 | MSVLDALWEDRDVRFDLSAQQMKTRPGEVLIDCLDSIEDTKGENGDRGRLLVTNLRILWHSLALSRVNVSVGYNCILNITTRTANSKLRGQTEALYILTKCNSTRFEFIFTNLVPGSPRLFTSVMAVHRAYETSKMYRDFKLRSALIQNKQLRLLPQEHVYDKINGVWNLSSDQGNLGTFFITNVRIVWHANMNDSFNVSIPYLQIRSIKIRDSKFGLALVIESSQQSGGYVLGFKIDPVEKLQESVKEINSLHKVYSASPIFGVDYEMEEKPQPLEALTVEQIQDDVEIDSDGHTDAFVAYFADGNKQQDREPVFSEELGLAIEKLKDGFTLQGLWEVMS [N43E] | with no effect
8 | MSVLDALWEDRDVRFDLSAQQMKTRPGEVLIDCLDSIEDTKGNNGDRGRLLVTNLRILWHSLALSRVNVSVGYNCILNITTRTANSKLRGQTEALYILTKCNSTRFEFIFTNLVPGSPRLFTSVMAVHRAYETSKMYRDFKLRSALIQNKQLRLLPQEHVYDKINGVWNLSSDQGNLGTFFITNVRIVWHANMNDSFNVSIPYLQIRSIKIRDSKFGLALVIESSQQSGGYVLGFKIDPVEKLQESVKEINSLHKVYSASPIFGVDYEMEEKPQPLEALTVEQAQDDVEIDSDGHTDAFVAYFADGNKQQDREPVFSEELGLAIEKLKDGFTLQGLWEVMS [I284A] | with no effect
9 | MSVLDALWEDRDVRFDLSAQQMKTRPGEVLIDCLDSIEDTKGNNGDRGRLLVTNLRILWHSLALSRVNVSVGYNCILNITTRTANSKLRGQTEALYILTKCNSTRFEFIFTNLVPGSPRLFTSVMAVHRAYETSKMYRDFKLRSALIQNKQLRLLPQEHVYDKINGVWNLSSDQGNAGTFFITNVRIVWHANMNDSFNVSIPYLQIRSIKIRDSKFGLALVIESSQQSGGYVLGFKIDPVEKLQESVKEINSLHKVYSASPIFGVDYEMEEKPQPLEALTVEQIQDDVEIDSDGHTDAFVAYFADGNKQQDREPVFSEELGLAIEKLKDGFTLQGLWEVMS [L177A] | with no effect
10 | MSVLDALWEDRDVRFDLSAQQMKTRPGEVLIDCLDSIEDTKGNNGDRGRLLVTNLRILWHSLALSRVNVSVGYNCILNITTRTANSKLRGQTEALYILTKCNSTRFEFIFTNLVPGSPRLFTSVMAVHRAYETSKMYRDFKLRSALIQNKQLRLLPQEHVYDKINGVWNLSSDQGNLGTFFITNVRIVWHANMADSFNVSIPYLQIRSIKIRDSKFGLALVIESSQQSGGYVLGFKIDPVEKLQESVKEINSLHKVYSASPIFGVDYEMEEKPQPLEALTVEQIQDDVEIDSDGHTDAFVAYFADGNKQQDREPVFSEELGLAIEKLKDGFTLQGLWEVMS [N194A] | with no effect
11 | MSVLDALWEDRDVRFDLSAQQMKTRPGEVLIDCLDSIEDTKGNNGDRGRLLVTNLRILWHSLALSRVNVSVGYNCILNITTRTANSKLRGQTEALYILTKCNSTRFEFIATNLVPGSPRLFTSVMAVHRAYETSKMYRDFKLRSALIQNKQLRLLPQEHVYDKINGVWNLSSDQGNLGTFFITNVRIVWHANMNDSFNVSIPYLQIRSIKIRDSKFGLALVIESSQQSGGYVLGFKIDPVEKLQESVKEINSLHKVYSASPIFGVDYEMEEKPQPLEALTVEQIQDDVEIDSDGHTDAFVAYFADGNKQQDREPVFSEELGLAIEKLKDGFTLQGLWEVMS [F110A] | with no effect
12 | MSVLDALWEDRDVRFDLSAQQMKTRPGEVLIDCLDSIEDTKGNNGDRGRLLATNLRILWHSLALSRVNVSVGYNCILNITTRTANSKLRGQTEALYILTKCNSTRFEFIFTNLVPGSPRLFTSVMAVHRAYETSKMYRDFKLRSALIQNKQLRLLPQEHVYDKINGVWNLSSDQGNLGTFFITNVRIVWHANMNDSFNVSIPYLQIRSIKIRDSKFGLALVIESSQQSGGYVLGFKIDPVEKLQESVKEINSLHKVYSASPIFGVDYEMEEKPQPLEALTVEQIQDDVEIDSDGHTDAFVAYFADGNKQQDREPVFSEELGLAIEKLKDGFTLQGLWEVMS [V52A] | with no effect
13 | MSVLDALWEDRDVRFDLSAQQMKERPGEVLIDCLDSIEDTKGNNGDRGRLLVTNLRILWHSLALSRVNVSVGYNCILNITTRTANSKLRGQTEALYILTKCNSTRFEFIFTNLVPGSPRLFTSVMAVHRAYETSKMYRDFKLRSALIQNKQLRLLPQEHVYDKINGVWNLSSDQGNLGTFFITNVRIVWHANMNDSFNVSIPYLQIRSIKIRDSKFGLALVIESSQQSGGYVLGFKIDPVEKLQESVKEINSLHKVYSASPIFGVDYEMEEKPQPLEALTVEQIQDDVEIDSDGHTDAFVAYFADGNKQQDREPVFSEELGLAIEKLKDGFTLQGLWEVMS [T24E] | with no effect
14 | MEVLDALWEDRDVRFDLSAQQMKTRPGEVLIDCLDSIEDTKGNNGDRGRLLVTNLRILWHSLALSRVNVSVGYNCILNITTRTANSKLRGQTEALYILTKCNSTRFEFIFTNLVPGSPRLFTSVMAVHRAYETSKMYRDFKLRSALIQNKQLRLLPQEHVYDKINGVWNLSSDQGNLGTFFITNVRIVWHANMNDSFNVSIPYLQIRSIKIRDSKFGLALVIESSQQSGGYVLGFKIDPVEKLQESVKEINSLHKVYSASPIFGVDYEMEEKPQPLEALTVEQIQDDVEIDSDGHTDAFVAYFADGNKQQDREPVFSEELGLAIEKLKDGFTLQGLWEVMS [S2E] | with no effect
15 | MSVLDALWEDRDVRFDLSAQQMKTRPGEVLIDCLDSIEDTKGNNGDRGRLLVTNLRILWHSLALSRVNVSVGYNCILNITTRTANSKLRGQTEALYILTKCNSTRFEFIFTNLVPGSPRLFTSVMAVHRAYETSKMYRDFKLRSALIQNKQLRLLPQEHVYDKINGVWNLSSDQGNLGTFFITNVRIVWHANMNDSFNVSIPYLQIRSIKIRDSKFGLALVIESSQQSGGYVLGFKIDPVEKLQESVKEINSLHKVYSASPIEGVDYEMEEKPQPLEALTVEQIQDDVEIDSDGHTDAFVAYFADGNKQQDREPVFSEELGLAIEKLKDGFTLQGLWEVMS [F263E] | with no effect
16 | MSVLDALWEDRDVRFDLSAQQMKTRPGEVLIDCLDSIEDTKGNNGDRGRLLVTNLRILWHSLALSRVNVSVGYNCILNITTRTANSKLRGQTEALYILTKCNSTRFEFIFTNLVPGSPRLFTSVMAVHRAYETSKMYRDFKLRSALIQNKQLRLLPQEHVYDKINGVWNLSSDQGNLGTFFITNVRIVWHANMNDSFNVSIPYLQIRSIKIRDSKFGLALVIESSQQSGGYVLGFKIDPVEKLQESVKEINSLHKVYSASPIFGVDYEMEEKPQPLEALTVEQIQDDVEIDSDGHTDAFVAYFADGNKQQDREPVFSEELGLAIEKLKDGFTLQGLAEVMS [W337A] | with no effect
17 | MSVLDALWEDRDVRFDLSAQQMKTRPGEVLIDCLDSIEDTKGNNGDRKRLLVTNLRILWHSLALSRVNVSVGYNCILNITTRTANSKLRGQTEALYILTKCNSTRFEFIFTNLVPGSPRLFTSVMAVHRAYETSKMYRDFKLRSALIQNKQLRLLPQEHVYDKINGVWNLSSDQGNLGTFFITNVRIVWHANMNDSFNVSIPYLQIRSIKIRDSKFGLALVIESSQQSGGYVLGFKIDPVEKLQESVKEINSLHKVYSASPIFGVDYEMEEKPQPLEALTVEQIQDDVEIDSDGHTDAFVAYFADGNKQQDREPVFSEELGLAIEKLKDGFTLQGLWEVMS [G48K] | with no effect

— IntAct's records for PubMed 29039417
